According to US20190000971A1 (RESEARCH INSTITUTE AT NATIONWIDE CHILDREN S HOSPITAL, published 2019):

T1: Haemophilus influenzae IhfB, modified B4 (mB4) fragment (Haemophilus influenzae)
T1 construct: Synthetic 20-mer peptide; also called IhfB frag. mB4
T1 peptide: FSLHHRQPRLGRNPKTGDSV

T2: Haemophilus influenzae IhfA, A5 fragment (Haemophilus influenzae)
T2 construct: Synthetic 20-mer peptide; also called IhfA frag; A5
T2 peptide: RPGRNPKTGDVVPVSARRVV


How the values were obtained:
[1] = biological target: T1, Haemophilus influenzae IhfB, modified …; assay: ELISA (FIG. 2B)
[2] = biological target: T2, Haemophilus influenzae IhfA, A5 fragment; assay: ELISA, peptide-coated plate (FIG. 2B/2C)

Row | Binder | binding result [1] | binding result [2]
1 | monoclonal antibody mIhfB4 NTHI (hybridoma mIhfB4 NTHI 12E6.F8.D12.D5, ATCC PTA-122335) (antibody, V domains shown, 17; also called Ihf mB4; mB4) VH: EVQLQESGAELVRSGASVKLSCTASGFNIKDYYMHWVKQRPEQGLEWIGWIDPENDDTEYVPKFQGKASMTADTSSNTAYLQLSSLTSEDTAVYYCTELGAYWGQGTLV VL: not shown | binds | 
2 | monoclonal antibody IhfA5 NTHI (hybridoma IhfA5 NTHI 14G8.F5.G6, ATCC PTA-122334) (antibody, V domains shown, 13; also called mAb IhfA5NTHI) VH: EVQLQESGPGLVTPSQSLSMTCTVSGFSLTSYSVHWVRQPPGKSLEWLGVIWAGGSTNYNSALMSRLSISKDNSKSQVFLKMDSLQTDDTAIYYCAREDSWGQGTSVTVSS VL: DIVMTQSQKFMSTSVGDRVSVTCKASQNVGTNVAWYQQKPGQSPKALIYSASYRYSGVPDRFTGSGSGTDFTLTISNVQSEDLAEYFCQQYNSYPTFGGGTKLEIK |  | binds
